Assay results: article PMC3960220, “1,2-β-Oligoglucan Phosphorylase from Listeria innocua” (PLoS ONE, 2014)

Test system: O=P(O)(O)O[C@H]1O[C@H](CO)[C@@H](O)[C@H](O)[C@H]1O
Assay: phosphate release, Lowry and Lopez molybdate method, A700
Assay type: biochemical, Listeria innocua
Conditions: synthetic reaction (donor, up to 10 mM), co-substrate 10 mM Sop2, 100 mM MOPS-NaOH pH 7.5, 30°C
Text: phosphate release, Lowry and Lopez molybdate method, A700 on Lin1839r (recombinant Lin1839 protein; 1,2-β-oligoglucan phosphorylase)

## Lin1839r (recombinant Lin1839 protein; 1,2-β-oligoglucan phosphorylase) (Listeria innocua Clip11262; T2A)
  Km: 1200 ± 200 µM
  kcat: 43 ± 2 s⁻¹
  kcat/Km: 34000 ± 4000 M⁻¹ s⁻¹
